System: MS2 coat protein
Test: apparent KD of MS2 coat protein; designed switch direction (-1 OFF switch, 1 ON switch): -1; higher = weaker reporter binding
In short: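 Three titration conditions were used: no input, 200 uM small-molecule ligand, and an oligonucleotide input. In each, SNAP-549-labelled MS2 coat protein was raised from 0.7 or 1.5 nM, doubling, to 3 µM over designed RNA switches transcribed on Illumina chips by stalled E. coli RNA polymerase. Curve fits of normalised cluster fluorescence gave values whose per-design median over clusters is the apparent KD.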

[1] = input ligand: microRNA oligo, concentration not stated
[2] = Eterna round: R95, input ligand: FMN 200 uM
[3] = Eterna round: R95, input ligand: microRNA oligo, concentration not stated
[4] = Eterna round: R95, input ligand: none

AGGUAACAUGAGGAUCACCCAUGUCAGGAUAUCAGGAAGAUUAGAAUAGAGUAGAGGAUGAGAAGGGACUAUAU [Excluse me! 18- Jieux - Exclusion 1] (Eterna round: R96, puzzle: Exclusion 1)
apparent KD of MS2 coat protein [1]: 24.7 nM

AGGUAACAUGAGGAUCACCCAUGUCAGGAUAUCAGGAAGAUUAGAAUAGAGUAGAGGAUGAGAAGGGACUAUAU [Excluse me! 18- Jieux - Exclusion 1] (puzzle: Exclusion 1)
apparent KD of MS2 coat protein [2]: 31 nM
apparent KD of MS2 coat protein [3]: 31.7 nM
apparent KD of MS2 coat protein [4]: 43.1 nM

AGGUCACAUGAGGAUCACCCAUGUCAGGAUAUCUACAUUGAAGCCUCGGCUUCAAUGUAGAGAAGGGAUAAUUA [E1/8-B2] (Eterna round: R97, puzzle: Exclusion 1)
apparent KD of MS2 coat protein (input ligand: FMN 200 uM): 63.7 nM
apparent KD of MS2 coat protein (input ligand: none): 44.7 nM

AGGUCACAUGAGGAUCACCCAUGUCAGGAUAUCUACAUUGAAGCUUCGGCUUCAAUGUAGAGAAGGGACAAUUA [E1/6-B1] (Eterna round: R97, puzzle: Exclusion 1)
apparent KD of MS2 coat protein (input ligand: FMN 200 uM): 341 nM
apparent KD of MS2 coat protein (input ligand: none): 75.7 nM

AGGUCCUUCUGGACACAUGAGGAUCACCCAUGUGAGGUCAGCGAGGAUAUCGGUCAAUAAUGUGACGAGAAGGCGCGGACCGAU [Ex NG3 #58] (Eterna round: R96, puzzle: Exclusion NG 3)
apparent KD of MS2 coat protein (input ligand: FMN 200 uM): 31.6 nM
apparent KD of MS2 coat protein [1]: 14.8 nM
apparent KD of MS2 coat protein (input ligand: none): 19.1 nM

AGGUCCUUCUGGAGACAUGAGGAUCACCCAUGUCGAGUCAGCGAGGAUAUCGGUUAAUAAUGUGACGAGAAGGCGCGGACCGAU [Ex NG3 #55] (Eterna round: R96, puzzle: Exclusion NG 3)
apparent KD of MS2 coat protein (input ligand: FMN 200 uM): 45.1 nM
apparent KD of MS2 coat protein [1]: 9.82 nM
apparent KD of MS2 coat protein (input ligand: none): 13 nM

AGGUGACAUGAGGAUCACCCAUGUGAGGAUAUCUGGAUACUCUUUAUUUUAGAUAUCCAGAGAAGGCACACCCU [Ex1-3: 8Z] (puzzle: Exclusion 1)
apparent KD of MS2 coat protein [3]: 235 nM

AGGUGCUUCUGGAGACAUGAGGAUCACCCAUGUCGAGUCAGCGAGGAUAUCGGUAAGACAUGUGAUGAGAAGGCGCAGACCGAU [Ex NG3 #52] (Eterna round: R96, puzzle: Exclusion NG 3)
apparent KD of MS2 coat protein (input ligand: FMN 200 uM): 48.6 nM
apparent KD of MS2 coat protein [1]: 22.6 nM
apparent KD of MS2 coat protein (input ligand: none): 30.8 nM

AGGUGUAGAGGAUAUACUGCAAAGCACAUGAGGAUCACCCAUGUCCCUCUAUGAGAUUAAGUAGAAGGCUACACCA [Omei Ex5 C4] (Eterna round: R97, puzzle: Exclusion 5)
apparent KD of MS2 coat protein (input ligand: FMN 200 uM): 55.7 nM
apparent KD of MS2 coat protein (input ligand: none): 49.9 nM

AGGUGUAGAGGAUAUUUAUACUCCCACAUGAGGAUCACCCAUGUCCUGGUCACCAAGGACGGAGAAGGCUACACCA [Omei Ex5 D23] (Eterna round: R97, puzzle: Exclusion 5)
apparent KD of MS2 coat protein (input ligand: FMN 200 uM): 48.5 nM
apparent KD of MS2 coat protein (input ligand: none): 41.8 nM

AGUAACAGAGGAUAUACUAUUUUAUGUGUUUGUUGUUUUAAACAUGAGGAUCACCCAUGUAGAAGGCUGAAUAA [JMF 88] (puzzle: Exclusion 2)
apparent KD of MS2 coat protein [3]: 19 nM

AGUAACAGAGGAUAUACUGUUUUAUGUAUUUAUUAUUUUAAACAUGAGGAUCACCCAUGUAGAAGGCUGAAUAA [JMF 81] (puzzle: Exclusion 2)
apparent KD of MS2 coat protein [3]: 17.5 nM

AGUAACAGAGGAUAUACUGUUUUAUGUGUUUAUUAUUUUGAACAUGAGGAUCACCCAUGUAGAAGGCUGAAUAA [JMF 90] (puzzle: Exclusion 2)
apparent KD of MS2 coat protein [3]: 21.8 nM

AGUAACCGUCACGAAAGUGAUGGUUACACAAGUAAAUGUACAUGAGGAUCACCCAUGUCCUCAUUUGCUCGUCUUAU [Sensor 3 - 46] (puzzle: Sensor v3, turn-off variant 2)
apparent KD of MS2 coat protein [2]: 152 nM
apparent KD of MS2 coat protein [3]: 373 nM
apparent KD of MS2 coat protein [4]: 230 nM

AGUAACCGUCACGAAAGUGAUGGUUACGCAAGUAAAUGUACAUGAGGAUCACCCAUGUCCUCAAUUGCUCGUCUUAU [Sensor 3 - 52] (puzzle: Sensor v3, turn-off variant 2)
apparent KD of MS2 coat protein [2]: 663 nM
apparent KD of MS2 coat protein [3]: 167 nM
apparent KD of MS2 coat protein [4]: 623 nM

Source: the supplement of paper PMC9170038
